Substitutions are numbered along the chain they refer to.
Assays:
[1] = biological target: T1, hPIF1HD R294A (human, UniProt Q9H611 206-620, R294A); test: EMSA; no nucleotide; apparent; 20 mM HEPES-NaOH pH 7.5 (Results say pH 7.2), 135 mM NaCl, 5% glycerol, 1 mM DTT, 1 mg/ml BSA, 20 min at 20 C; 0.4 nM T(35); G4 assay: 0.1 nM G4 DNA, 2% PEG 8000 instead of glycerol, 5 uM T(35) competitor; conditions: protein: recombinant; tags: His tag removed, GSRM left; label: 5' 32P (PNK)
T1 sequence: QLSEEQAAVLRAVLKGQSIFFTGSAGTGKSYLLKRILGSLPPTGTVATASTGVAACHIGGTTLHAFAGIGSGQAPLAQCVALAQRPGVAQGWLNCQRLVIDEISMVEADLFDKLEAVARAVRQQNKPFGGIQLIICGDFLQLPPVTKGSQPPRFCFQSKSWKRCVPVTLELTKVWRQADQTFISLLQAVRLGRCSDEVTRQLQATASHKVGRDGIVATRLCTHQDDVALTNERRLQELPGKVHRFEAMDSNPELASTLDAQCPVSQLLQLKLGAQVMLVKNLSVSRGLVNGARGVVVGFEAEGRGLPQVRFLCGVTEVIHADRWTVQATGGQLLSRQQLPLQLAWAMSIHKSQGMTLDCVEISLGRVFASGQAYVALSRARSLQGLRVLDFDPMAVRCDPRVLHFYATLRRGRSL

[2] = biological target: T2, hPIF1HD wild-type (human, UniProt Q9H611 206-620); test: as above; conditions: protein: recombinant; tags: His tag removed by thrombin, GSRM left at N-term; label: 5' 32P (PNK)
T2 sequence: T1 sequence with A89R

[3] = biological target: T3, hPIF1HD K414A (human, UniProt Q9H611 206-620, K414A); test: as above; conditions: protein: recombinant; tags: His tag removed, GSRM left; label: 5' 32P (PNK)
T3 sequence: T1 sequence with A89R, K209A

[4] = biological target: T4, hPIF1HD K485E (human, UniProt Q9H611 206-620, K485E); test: EMSA; no nucleotide; 20 mM HEPES-NaOH pH 7.5 (Results say pH 7.2), 135 mM NaCl, 5% glycerol, 1 mM DTT, 1 mg/ml BSA, 20 min at 20 C; 0.4 nM T(35); G4 assay: 0.1 nM G4 DNA, 2% PEG 8000 instead of glycerol, 5 uM T(35) competitor; conditions: protein: recombinant; tags: His tag removed, GSRM left; label: 5' 32P (PNK)
T4 sequence: T1 sequence with A89R, K280E

TTTTTTTTTTTTTTTTTTTTTTTTTTTTTTTTTTT (ssDNA) [poly-T(35)]
Kd [1]: 5.7 ± 1.6 nM | Kd [2]: 2.3 ± 0.3 nM | Kd [3]: 1.6 ± 0.4 nM | binding signal [4]: > 50 fold decrease in affinity vs WT
